Source: paper PMC5352318, “Carcinoma-risk variant of EBNA1 deregulates Epstein-Barr Virus episomal latency”

T1: B95-8 EBNA1 DBD (Epstein-Barr virus (strain B95-8)) (UniProt P03211)
T1 sequence: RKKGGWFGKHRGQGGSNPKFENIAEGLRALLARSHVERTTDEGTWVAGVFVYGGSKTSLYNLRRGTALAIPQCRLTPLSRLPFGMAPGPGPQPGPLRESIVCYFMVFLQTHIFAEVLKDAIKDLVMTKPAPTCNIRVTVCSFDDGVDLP


Columns and labels:
[1] = biological target: T1, B95-8 EBNA1 DBD (Epstein-Barr virus (strain B95-8)); assay: SPR; settings: SPR (Biacore T200, SA chip): 20 mM Tris pH 8.0, 250 mM NaCl, 5 mM beta-mercaptoethanol, 1 mM MgCl2, EBNA1 0-200 nM; temperature not stated. Crystals: 0.2 M …
B95-8 EBNA1 DBD = B95-8 EBNA1 DBD (Epstein-Barr virus (strain B95-8), UniProt P03211 459-607); assay: SPR; 1 mM Mg2+; range given for both proteins, exact value in Fig 2B; SPR (Biacore T200, SA chip): 20 mM Tris pH 8.0, 250 mM NaCl, 5 mM beta-mercaptoethanol, 1 mM MgCl2, EBNA1 0-200 nM; temperature not stated. Crystals: 0.2 M ammonium acetate, 0.15 M Mg acetate, 0.05 M Hepes pH 7.0, 5% PEG 4000; settings: protein: recombinant; tags: His6-SUMO tag, cleaved; chain copies: 2; label: 5' biotin; self-complementary 18-mer

| Molecule | Kd [1] | Kd (B95-8 EBNA1 DBD) |
| --- | --- | --- |
| CGATAGCATATGCTTCCCGTTGGGTAACATATGCTATTG (double strand) [DS 3+4 (two EBNA1 dimer sites)] | 11.9 nM |  |
| FR single EBNA1 dimer site (SPR) (dsDNA) DNA 1: GGGAAGCATATGCTTCCC DNA 2: GGGAAGCATATGCTTCCC |  | ~16.5 nM |
